Laboratory results reported in patent publication US20220041753A1 (H LEE MOFFITT CANCER CENTER AND RESEARCH INSTITUTE, published 2022).

Molecular target: T1, ZNRF3 ECD (UniProt Q9ULT6 56-219, limits assumed)
T1 construct: extracellular domain; also called ZNRF3 extracellular domain; fluorescently labeled ZNRF3 ECDs
T1 sequence (looked up): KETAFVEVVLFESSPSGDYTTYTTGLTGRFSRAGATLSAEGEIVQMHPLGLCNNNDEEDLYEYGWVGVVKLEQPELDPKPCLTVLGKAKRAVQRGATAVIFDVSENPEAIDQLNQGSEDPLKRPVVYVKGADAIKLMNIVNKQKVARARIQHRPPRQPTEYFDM
Assay: surface plasmon resonance (FIG. 3B)

B1: ZNRF3-specific scFv "Z6" (scFv)
scFv: ASQVQLVQSGAEVKNPGASVKVSCKASGYAFTSYGISWVRQAPGQGLEWMGWISAYTRNTNYAQKFQGRVTLTTDTSTSTAYMELRSLRSDDTAIYYCARDARYSLGVGAFDVWGQGTMVTVSSGILGSGGGGSGGGGSGGGGSETTLTQSPAFMSATPGDKVSISCKASRDIDDDLNWYQQKPGEAAISIIQEATTLVPGIPPRFSGSGYGTDFTLTINNIESEDAAYYFCLQHDDVPYTFGQGTKLEIKSGIL
notes: the display fusion is not described; also called ZNRF3-specific single-chain antibody variable fragment (scFv)
  Kd: 80 nM
